Data published in publication PMC10117100.

Legend:
[1] = target: Gluc1-ΔN(1 to 433) (human); test: split reporter (BiFC, NanoBiT); Gaussia princeps protein complementation assay (GPCA): Gluc1 and Gluc2 N-terminal fusions co-transfected in HEK293T, luminescence of lysates after 48 h as normalized luminescence ratio (NLR); pairs count as interacting if NLR is above 5
Gluc1-ΔNp73α FL (human) = Gluc1-ΔNp73α FL (human) (UniProt O15350); test: as above
Sequence of Gluc1-ΔNp73α FL (human) (O15350 other isoform, or with tags, fused parts or gaps mutant): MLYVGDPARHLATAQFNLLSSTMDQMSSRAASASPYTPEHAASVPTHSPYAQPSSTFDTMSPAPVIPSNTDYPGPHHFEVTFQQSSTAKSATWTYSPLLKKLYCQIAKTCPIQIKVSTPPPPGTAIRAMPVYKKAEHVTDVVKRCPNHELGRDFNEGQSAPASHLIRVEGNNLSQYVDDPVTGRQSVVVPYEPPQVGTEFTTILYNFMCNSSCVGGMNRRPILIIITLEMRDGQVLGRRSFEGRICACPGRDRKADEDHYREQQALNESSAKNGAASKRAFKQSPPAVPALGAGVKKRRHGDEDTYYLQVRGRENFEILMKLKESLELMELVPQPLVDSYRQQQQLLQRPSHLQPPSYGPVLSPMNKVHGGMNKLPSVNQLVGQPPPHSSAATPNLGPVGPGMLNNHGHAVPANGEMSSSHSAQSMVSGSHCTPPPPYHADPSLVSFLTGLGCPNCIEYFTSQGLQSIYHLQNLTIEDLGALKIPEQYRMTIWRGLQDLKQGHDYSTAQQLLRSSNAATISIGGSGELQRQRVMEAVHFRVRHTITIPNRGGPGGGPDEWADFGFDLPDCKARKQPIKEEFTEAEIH

Sequence of Gluc2-E2F4 FL (Q16254 whole entry): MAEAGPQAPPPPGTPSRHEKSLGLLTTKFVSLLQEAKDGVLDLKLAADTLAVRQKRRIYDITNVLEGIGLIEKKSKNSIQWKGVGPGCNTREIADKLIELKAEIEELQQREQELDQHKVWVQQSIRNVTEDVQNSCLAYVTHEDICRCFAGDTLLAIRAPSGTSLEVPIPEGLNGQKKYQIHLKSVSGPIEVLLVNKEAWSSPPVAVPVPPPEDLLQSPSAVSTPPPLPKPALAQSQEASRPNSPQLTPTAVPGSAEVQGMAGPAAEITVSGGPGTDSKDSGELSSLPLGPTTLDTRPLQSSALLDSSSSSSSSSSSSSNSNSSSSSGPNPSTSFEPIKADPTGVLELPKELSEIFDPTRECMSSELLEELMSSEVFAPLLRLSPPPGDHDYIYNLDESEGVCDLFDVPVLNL
Sequence of Gluc1-ΔN(1 to 433) (human) (O15350 other isoform, or with tags, fused parts or gaps mutant): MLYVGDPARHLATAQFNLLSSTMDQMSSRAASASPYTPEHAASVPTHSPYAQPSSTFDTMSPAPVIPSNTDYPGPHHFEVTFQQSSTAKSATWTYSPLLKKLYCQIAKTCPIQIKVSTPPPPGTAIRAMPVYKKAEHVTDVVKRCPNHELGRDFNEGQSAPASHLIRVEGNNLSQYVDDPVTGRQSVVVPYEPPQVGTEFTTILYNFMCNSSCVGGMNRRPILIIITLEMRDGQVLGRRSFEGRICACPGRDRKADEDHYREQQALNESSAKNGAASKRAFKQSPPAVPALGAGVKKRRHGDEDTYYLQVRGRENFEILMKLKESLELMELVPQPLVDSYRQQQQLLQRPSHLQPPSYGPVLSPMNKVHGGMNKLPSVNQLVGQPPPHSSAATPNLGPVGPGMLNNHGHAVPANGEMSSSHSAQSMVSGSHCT
Sequence of Gluc2-E2F(1 to 336) (Q16254 1-336): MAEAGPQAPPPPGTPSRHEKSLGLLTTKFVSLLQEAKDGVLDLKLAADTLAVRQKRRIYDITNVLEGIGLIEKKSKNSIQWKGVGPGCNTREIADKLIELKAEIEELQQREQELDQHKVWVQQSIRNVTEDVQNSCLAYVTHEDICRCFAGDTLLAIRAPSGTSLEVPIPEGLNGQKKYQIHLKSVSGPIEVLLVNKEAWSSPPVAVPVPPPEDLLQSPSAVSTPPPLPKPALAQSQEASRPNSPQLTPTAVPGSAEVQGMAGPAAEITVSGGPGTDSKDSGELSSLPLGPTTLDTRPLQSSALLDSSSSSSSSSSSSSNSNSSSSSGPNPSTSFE

Row | Substance | normalized luminescence ratio (NLR) [1] | NLR normalized to the ΔNp73α-E2F4 FL interaction (Gluc1-ΔNp73α FL (human))
1 | Gluc2-E2F4 FL (from UniProt Q16254 1-413) (natural protein) | > 20 | –
2 | Gluc2-E2F(1 to 336) (from UniProt Q16254 1-336) (domain or fragment) | – | 60%
